Results as given in patent US20220411483A1 (Chugai, published 2022).
Positions count from the first letter of the chain named. Each block holds one binder with its values, some of them ahead of it.

What was measured:
FcgRIIb = biological target: T1, FcgRIIb (human, UniProt P31994 43-217); experiment: SPR, amount bound per captured antibody
T1 construct: extracellular domain; also called FcγRIIb
T1 sequence (looked up): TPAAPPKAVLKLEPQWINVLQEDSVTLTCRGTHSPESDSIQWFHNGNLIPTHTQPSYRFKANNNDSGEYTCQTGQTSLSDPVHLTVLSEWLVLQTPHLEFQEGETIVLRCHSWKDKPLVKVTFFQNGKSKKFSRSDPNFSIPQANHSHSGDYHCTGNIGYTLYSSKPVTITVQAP

FcgRIIaR = biological target: T2, FcgRIIaR (human, UniProt P12318 34-217); experiment: SPR, amount bound per captured antibody
T2 construct: extracellular domain; also called FcγRIIa R type; FcγRIIa (R type)
T2 sequence (looked up): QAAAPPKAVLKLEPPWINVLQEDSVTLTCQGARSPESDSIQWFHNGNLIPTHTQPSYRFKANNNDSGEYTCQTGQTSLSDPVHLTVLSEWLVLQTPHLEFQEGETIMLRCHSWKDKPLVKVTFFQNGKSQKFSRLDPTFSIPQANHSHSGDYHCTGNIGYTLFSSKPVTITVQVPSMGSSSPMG

[1] = biological target: T3, human FcγRIIa R type extracellular domain with C-terminal His tag (human, UniProt P12318 34-217); experiment: SPR, antibody captured, FcgR analyte
T3 construct: extracellular domain; also called FcgRIIaR
T3 sequence (looked up): T2 sequence (looked up)

[2] = biological target: T4, human FcγRIIb extracellular domain with C-terminal His tag (human, UniProt P31994 43-217); experiment: SPR, antibody captured, FcgR analyte
T4 construct: extracellular domain; also called FcgRIIb
T4 sequence (looked up): T1 sequence (looked up)

[3] = biological target: T5, human FcγRIa extracellular domain with C-terminal His tag (human, UniProt P12314 16-292); experiment: SPR, antibody captured, FcgR analyte
T5 construct: Whole entry named; also called FcgRIa
T5 sequence (P12314 16-292): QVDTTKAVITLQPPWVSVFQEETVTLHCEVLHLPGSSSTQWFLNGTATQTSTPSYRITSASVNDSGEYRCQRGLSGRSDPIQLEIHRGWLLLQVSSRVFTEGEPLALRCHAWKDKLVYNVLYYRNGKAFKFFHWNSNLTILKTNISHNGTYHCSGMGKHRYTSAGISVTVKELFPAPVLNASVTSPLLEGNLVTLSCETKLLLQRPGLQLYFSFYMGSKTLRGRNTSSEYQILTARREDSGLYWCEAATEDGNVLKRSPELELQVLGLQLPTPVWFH

[4] = biological target: T6, human FcγRIIa H type extracellular domain with C-terminal His tag (human, UniProt P12318 34-217); experiment: SPR, KD of IL6R-G1d/IL6R-L divided by KD of variant
T6 construct: extracellular domain; also called FcgRIIaH
T6 sequence (looked up): T2 sequence (looked up) with R134H

[5] = biological target: T3, human FcγRIIa R type extracellular …; experiment: as above
[6] = biological target: T4, human FcγRIIb extracellular domain with …; experiment: as above
[7] = biological target: T5, human FcγRIa extracellular domain with …; experiment: as above
[8] = biological target: T7, human FcγRIIIa V type extracellular domain with C-terminal His tag (human, UniProt P08637 17-208); experiment: as above
T7 construct: extracellular domain; also called FcgRIIIaV
T7 sequence (P08637 17-208 F176V): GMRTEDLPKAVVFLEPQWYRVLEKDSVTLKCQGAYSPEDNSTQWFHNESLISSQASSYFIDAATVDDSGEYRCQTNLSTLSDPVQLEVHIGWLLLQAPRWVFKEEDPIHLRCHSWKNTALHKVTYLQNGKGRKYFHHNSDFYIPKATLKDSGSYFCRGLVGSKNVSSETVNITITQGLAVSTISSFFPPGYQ

Relative FcgRIIb-binding Activity (FcgRIIb): 7.1 IL6R-G1d/IL6R-L=100
Relative FcgRIIaR-binding Activity (FcgRIIaR): 4.1 IL6R-G1d/IL6R-L=100
B1: IL6R-P630/IL6R-L (antibody, human IgG1, kappa)
heavy: QVQLQESGPGLVKPSETLSLTCAVSGHSISHDHAWSWVRQPPGEGLEWIGFISYSGITNYNPSLQGRVTISRDNSKNTLYLQMNSLRAEDTAVYYCARSLARTTAMDYWGEGTLVTVSSASTKGPSVFPLAPSSKSTSGGTAALGCLVKDYFPEPVTVSWNSGALTSGVHTFPAVLQSSGLYSLSSVVTVPSSSLGTQTYICNVNHKPSNTKVDKKVEPKSCDKTHTCPPCPAPDLLGGDSVFLFPPKPKDTLMISRTPEVTCVVIKVAEEDGEVKFNWYVDGVEVHNAKTKPREEQYNSTYRVVSVLTVLHQDWLNGKEYKCKVSNKALPAPIEKTISKAKGQPREPQVYTLPPSRDELTKNQVSLTCLVKGFYPSDIAVEWESNGQPENNYKTTPPVLDSDGSFFLYSKLTVDKSRWQQGNVFSCSVMHEALHNHYTQKSLSLSP
light: not shown

Kd [1]: 37000 nM
Kd [2]: 3600 nM
Kd [3]: 30 nM
Relative FcgRIIaH-binding Activity [4]: 0.005
Relative FcgRIIaR-binding Activity [5]: 0.03
Relative FcgRIIb-binding Activity [6]: 0.6
Relative FcgRIa-binding Activity [7]: 0.011
Relative FcgRIIIaV-binding Activity [8]: 0.006
B3: IL6R-P782/IL6R-L (antibody, human IgG1, kappa)
heavy: B1 heavy with I266V, K267D, A269S, E270H, G273P, A329G, A332S, P333S
light: not shown

Relative FcgRIIb-binding Activity (FcgRIIb): 55.5 IL6R-G1d/IL6R-L=100
B5: IL6R-P637/IL6R-L (antibody, human IgG1, kappa)
heavy: B1 heavy with K267D, A269Y
light: not shown

Kd [1]: 1900 nM
Kd [2]: 52 nM
Kd [3]: 1.6 nM
Relative FcgRIIaH-binding Activity [4]: 0.008
Relative FcgRIIaR-binding Activity [5]: 0.58
Relative FcgRIIb-binding Activity [6]: 40.4
Relative FcgRIa-binding Activity [7]: 0.2
Relative FcgRIIIaV-binding Activity [8]: 0.007
B6: IL6R-P777/IL6R-L (antibody, human IgG1, kappa)
heavy: B1 heavy with K267D, K324A
light: not shown

Kd [1]: 5400 nM
Kd [2]: 400 nM
Kd [3]: 8.6 nM
Relative FcgRIIaH-binding Activity [4]: 0.005
Relative FcgRIIaR-binding Activity [5]: 0.2
Relative FcgRIIb-binding Activity [6]: 5.3
Relative FcgRIa-binding Activity [7]: 0.037
Relative FcgRIIIaV-binding Activity [8]: 0.007
B10: IL6R-P775/IL6R-L (antibody, human IgG1, kappa)
heavy: B1 heavy with D235E, I266V, K267D, A269S, E270H, K324A
light: not shown

The next lines start with the binder.

B2: IL6R-P609/IL6R-L (antibody, human IgG1, kappa)
heavy: B1 heavy with L236A, K267D
light: not shown
Relative FcgRIIb-binding Activity (FcgRIIb): 178 IL6R-G1d/IL6R-L=100
Relative FcgRIIaR-binding Activity (FcgRIIaR): 82.6 IL6R-G1d/IL6R-L=100

B4: IL6R-P611/IL6R-L (antibody, human IgG1, kappa)
heavy: B1 heavy with L236A, G239D, K267D, Y298D, A332R, P398M
light: not shown
Relative FcgRIIb-binding Activity (FcgRIIb): 183 IL6R-G1d/IL6R-L=100
Relative FcgRIIaR-binding Activity (FcgRIIaR): 107 IL6R-G1d/IL6R-L=100

B7: IL6R-P623/IL6R-L (antibody, human IgG1, kappa)
heavy: B1 heavy with L236H, K267D
light: not shown
Relative FcgRIIb-binding Activity (FcgRIIb): 152 IL6R-G1d/IL6R-L=100
Relative FcgRIIaR-binding Activity (FcgRIIaR): 44.7 IL6R-G1d/IL6R-L=100

B8: IL6R-P613/IL6R-L (antibody, human IgG1, kappa)
heavy: B1 heavy with L237A, K267D
light: not shown
Relative FcgRIIb-binding Activity (FcgRIIb): 120 IL6R-G1d/IL6R-L=100
Relative FcgRIIaR-binding Activity (FcgRIIaR): 61.2 IL6R-G1d/IL6R-L=100

B9: IL6R-P616/IL6R-L (antibody, human IgG1, kappa)
heavy: B1 heavy with L236A, L237A, K267D
light: not shown
Relative FcgRIIb-binding Activity (FcgRIIb): 89.2 IL6R-G1d/IL6R-L=100
Relative FcgRIIaR-binding Activity (FcgRIIaR): 41.8 IL6R-G1d/IL6R-L=100

B11: IL6R-P628/IL6R-L (antibody, human IgG1, kappa)
heavy: B1 heavy with G239R, K267D
light: not shown
Relative FcgRIIb-binding Activity (FcgRIIb): 176 IL6R-G1d/IL6R-L=100
Relative FcgRIIaR-binding Activity (FcgRIIaR): 48.1 IL6R-G1d/IL6R-L=100

B12: IL6R-P614/IL6R-L (antibody, human IgG1, kappa)
heavy: B1 heavy with L237A, G239D, K267D, Y298D, A332R, P398M
light: not shown
Relative FcgRIIb-binding Activity (FcgRIIb): 176 IL6R-G1d/IL6R-L=100
Relative FcgRIIaR-binding Activity (FcgRIIaR): 69.5 IL6R-G1d/IL6R-L=100

B13: IL6R-P617/IL6R-L (antibody, human IgG1, kappa)
heavy: B1 heavy with L236A, L237A, G239D, K267D, Y298D, A332R, P398M
light: not shown
Relative FcgRIIb-binding Activity (FcgRIIb): 158 IL6R-G1d/IL6R-L=100
Relative FcgRIIaR-binding Activity (FcgRIIaR): 49.2 IL6R-G1d/IL6R-L=100
